Measurements as given in the DeepSol protein solubility set.

Experiment: soluble on expression in E. coli; label from the status in PepcDB or PDB records
In the case of “MRTGKQYLESLNDGRVVWVGNEKIDNVATHPLTRDYAERVAQFYDLHHRPDLQDVLTFVDADGVRRSRQWQDPKDAAGLRVKRKYHETILREIAAGSYGRLPDAHNYTFTTYADDPEVWEKQSIGAEGRNLTQNIHNFLKLLREKDLNCPLNFVDPQTDRSSDAAQARSPNLRIVEKTDDGIIVNGVKAVGTGIAFGDYMHIGCLYRPGIPGEQVIFAAIPTNTPGVTVFCRESTVKNDPAEHPLASQGDELDSTTVFDNVFIPWEQVFHIGNPEHAKLYPQRIFDWVHYHILIRQVLRAELIVGLAILITEHIGTSKLPTVSARVAKLVAFHLAMQAHLIASEETGFHTKGGRYKPNPLIYDFGRAHFLQNQMSVMYELLDLAGRSSLMIPSEGQWDDSQSGQWFVKLNNGPKGNPRERVQIGRVIRDLYLTDWGGRQFMFENFNGTPLFAVFAATMTRDDMSAAGTYGKFASQVCGIEFGGAEPTAYAATADYAKALDKGLAPEPAAAESATS”, the “soluble on expression in E. coli” value is reported as “soluble”. For “MASKDAQVTLSRGEQSVKRIKEFNPKKDNFSILLMGIDARPGQSMDKERSDAMVLATFNRKDKSVKLLSIPRDSYVNIPGRGYDKITHAHSLGGRDLSTETVENLLDIPVDYVMEANFSAFKEVVDELGGVPITIKEDYIVRQIKKDTKGKVNLQTGEQTLGGEEALAYVRTRKADTDLKRGERQMEVIKSIINKSKSLTSIPAYDDILDTVGKNVSMNLSLNDAIGLIPFMTSIQTVDTLQLKGSDYQPGKVYYFQLDQENLNEIKQELKQQLDVLEHHHHHH”, the “soluble on expression in E. coli” value was “soluble”. In the case of “LAGIAGVDRDPPGWPQHSHLLAGDPERFRHQLQRAETTNSIECFVAEWHHAGVAADMTRPWPTVVQGGAGQRRRRDVEPDRKTPVRWMSGQRLSEITWPTTDIEHSVGAAEVQRHRGAVPLGSGGDAAGKVEGGRTPQPFVQP”, the “soluble on expression in E. coli” value is reported as “not soluble”. In the case of “MKTIGLLGGMSWESTIPYYRLINEGIKQQLGGLHSASLLLHSVDFHDIEVCQRRDEWDKAGDILAQAAHGLQQAGAEGIVLCTNTMHKIAHVIESRCSLPFLHIADATGRAIARQGLHRVALLGTRYTMEQDFYRGRLEQQFAIETIVPEADDRARINQVIFDELCQGTFTDASRHYYLQVIEQLAAQGAQGVIFGCTEIGLLVPQTQSALPVFDTTAIHAADAVSFMLSSSAPE”, the “soluble on expression in E. coli” value is reported as “soluble”. With “MYLTKEEELALSGEYGPAIQKAMEILVALGDIYNADRLIPIKSAQIAGVSYKNIGDEGIEFLRDFVEAGAKVSVYTTLNPAGIGDEDFMEKQAEIIELYRKMGVEITSTCTPYYGPNLPKYGDHLAWSESSAVIFANSVLGARTNREGGPSSLAAAIVGKTPNYGLHLEENRKATHIIEVKDKLKSRTEYSLLGYKIGEIVENGVPYIRGIAPTTEDLKALGASMAASGGVGLYHVEGSTPEWRGAIVDKIEKIEIGRKDLEDVRQRFSVDWGDVDIILLGCPHASLREIKEIAELLRMRDKPLKIPLFITVSRGIKALADYLGYTEIIERYNGKLLPDVCLVVSPIKEWYSGVATDSGKAAFYLKSFGLKVLLDTTENIIMGAPLEHHHHHH” the “soluble on expression in E. coli” value was “not soluble”. In the case of “MGSDKIHHHHHHMTPLAPHEASQDESAIAERIASAMPRMTPIHRRMGEFVLANPFRAATMRIDELAQAVNASIATANRFAKALGFDGYPAMRAALVRGFEATLGPVERLRSAQEQEQEQGVRGAAWIDAVFDQAIENIENTRARLDATDVEAAVEAIVGARRVLILGAGSSAFLTGLMEHGLSVCHDNVQSLALLGGPTHAARRLYTADSRDLVIALAFPRYVKDTIELARRAAARGARVLGISDGPGSPLAPVASLNLYVKAQRRFAATSEAAVLTMIEALIDAVALRTHRSAKSAAEMTEFLLPWLMQPPAALPAANPSSSGPKKS”, the “soluble on expression in E. coli” value is reported as “not soluble”. For “MASEDKFESVLSTRYCKNSPLVSILSETNKATLWRQLWIWLAEAEKELGLKQVTQDAIDEMKSNRDVFDWPFIRSEERKLKHDVMAHNHAFGKLCPTAAGIIHLGATSCFVQDNADLIAYRDSIDHILKRFATVIDRLAAFSLKNKEVVTVGRTHYQTASLVTVGKRGVLWAQELLMAFQSLSEFRDKMRFRGIKGATGTQDSFLTLFAGDESKVEALDELVTKKANFSNRFLITGQTYSRQQDSQLVFSLSLLGAAAKKVCTDIRVLQAFGELLEPFEKDQIGSSAMPYKKNPMKSERCCALSRKLINAPQEALTILADQGLERTLDDSAGRRMLIPDVLLTAEALLTTLQNIFEGLSVQTDNVKKIVEDEIAFLGLEKAMMMLTEEGVDRQQAHAVIRKTALEAKQLQATQKVDIRQTMADPFFDSVRDRVVGLVNNPINFTGRCVSQTESFIAKELKPTIDKYLDKSAGNVQLDV”, the “soluble on expression in E. coli” value was “soluble”. For “GVALGATRVIYPAGQKQVQLAVTNNDENSTYLIQSWVENADGVKDGRFIVTPPLFAMKGKKENTLRILDATNNQLPQDRESLFWMNVKAIPSMDKSKLTENTLQLAIISRIKLYYRPAKLALPPDQAAEKLRFRRSANSLTLINPTPYYLTVTELNAGTRVLENALVPPMGESAVKLPSDAGSNITYRTINDYGALTPKMTGVME”, the “soluble on expression in E. coli” value was “soluble”. In the case of “HHHHHHMDLVEKVKELCLELEEENLAKAIERFITLTHGIEKTRGEAFAKASIYGFLEGILTTLKMKYSNEKIETLLNEVKTAREETEALLRKPRPPLLVDNDL”, the “soluble on expression in E. coli” value is reported as “soluble”. In the case of “MAHHHHHHMRRCFKLQAPPGVLSILSDLAQPRTSTSYQELLRNSHLPAQPLPFLPPPRWAAELSRVLHRTFPDVVQHHHTRFLQVFVHPSFTTAAGVSGTMQPLVAVGESLLERIGGLWILATFESTRREEYASLLALLTSDTALCRVLRDHWRLEHMVLTDASADLFSRQRLSSTKGLVCWLSSHGNVNGAQSLPEPFGAGCVKAMVAAVLLEHGNDAAEHFVKSEVLPYVL”, the “soluble on expression in E. coli” value is reported as “not soluble”. In the case of “MGSDKIHHHHHHMAEPSGLLKKGEKMDSMLCTKRTLLSDEFQHWARLFMKTGKLHRKFWEWCFIAQALKEHDMLAPGRIGLGFGVGEEPLSSCFASFGASILATDLDLQNSSVAGWTKTSQHADNKGKLNKLGICPGWEFENLVEFEFANMNSIPKRYTGKFDFVWSSCSLEHLGSIEKGVTFILNSINCLKPGGVAVHTTEFNVSPNSDTIETGPTVLFRRKEIEDIIERVRSFGCRAHINWDHGDLPEDYYIDIPPYSHNPHLKLRISKYVVTSIGLVISK”, the “soluble on expression in E. coli” value is reported as “not soluble”. For “MTTTPYDIIGKEALYDMIDYFYTLVEKDERLNHLFPGDFAETSRKQKQFLTQFLGGPNIYTEEHGHPMLRKRHMDFTITEFERDAWLENMQTAINRAAFPQGVGDYLFERLRLTANHMVNS”, the “soluble on expression in E. coli” value was “not soluble”. In the case of “MHNVVITAAVRSPIGTFGGALKNVTPVELAVPVLQEAVKRGGVEPHEVDEVILGHCIQRTDEANTARTAALAAGFPDTVTGYTIQRQCSSGMQAIMSAAMQIQLGVSEVVVAGGVEAMSSSPYALKQHRWGQRLQHGEIRDTVWEVLEDPIHHIMMGETAENLVEQYEITREEQDEVALRSHTLALKAIESGYFDDQIVPITIKERRKEVVFSKDEHPRADITAEKLAGLKPAFRKDGSVTAGNASGLNDGSAVLVLMSEEKAKEKGLQPLARIVGYSVAGVDPKIMGIGPAPAIRKGLEKVDWSLEDADLLEINEAFAAQYLAVEKELGLDREKVNVNGSGVGLGHPIGCTGARITVSLIHELKRRGLEKGIASLCVGGGIGVALFIEAL”, the “soluble on expression in E. coli” value is reported as “not soluble”. With “MACLCLANISWATVCANSTGVAEDEHYDLSNVFNSTNNQPGQIVVLPEKSGWVGVSAICPPGTLVNYTYRSYVTNFIVQETIDNYKYMQLNDYLLGAMSLVDSVMDIQFPPQNYIRMGTDPNVSQNLPFGVMDSRLIFRLKVIRPFINMVEIPRQVMFTVYVTSTPYDPLVTPVYTISFGGRVEVPQNCELNAGQIVEFDFGDIGASLFSAAGPGNRPAGVMPQTKSIAVKCTNVAAQAYLTMRLEASAVSGQAMVSDNQDLGFIVADQNDTPITPNDLNSVIPFRLDAAAAANVTLRAWPISITGQKPTEGPFSALGYLRVDYQ” the “soluble on expression in E. coli” value was “not soluble”. With “MYKILEIADVVKVPPEEFGKDLKETVKKILMEKYEGRLDKDVGFVLSIVDVKDIGEGKVVHGDGSAYHPVVFETLVYIPEMYELIEGEVVDVVEFGSFVRLGPLDGLIHVSQIMDDYVSYDPKREAIIGKETGKVLEIGDYVRARIVAISLKAERKRGSKIALTMRQPYLGKLEWIEEEKAKKQNQE” the “soluble on expression in E. coli” value was “soluble”. With “MGSDKIHHHHHHMSCIIPNIYSQPTDTNLWNILLSSGIPRHYQKGEFVFEKDQPSNGLICLKKGKVKVSSFFSEGSEKIFGILVAPALFGETETLDQGPRMVSATALTHVEIVAISGNKTKELIYTYPDIALSIIQSIGVKLRWTTLQAEDLSTQKIEYRLARLLLDFKHYGIFTSKNNDNCLMITHEELAHFIGTARSKVTTYLNEFAHKGLIRLRRGEIRILDTAGLNKYKYTHKSQA” the “soluble on expression in E. coli” value was “not soluble”. In the case of “NKDNPYIKPDDPRPVVLFCSTFSPSLTCAPEVFEQIKALSQKSQWRWLVQFHPKMKPSIVEQYKTLENENLQFVETDNVIPLLQAGDVMLCDTSSILLMFLMQRKPVVTFKNQSPKAHLIDINRVEEIEPAITRALSRTDDLMAHIHDYCNQIHPTGDGQSSQRVLAATDA”, the “soluble on expression in E. coli” value is reported as “not soluble”. With “MGSDKIHHHHHHCEDIFNDLAVNPNQSDVNSFYTTLENCNKGILGIYGYISTPRNLGACGFGLMLTRSDEGCSVADYGVPGAYNEEFTPSYYSLVQPFQLMYTAASQANQMIESLTEIEFSNKELQDAYLGEAYFLRAFTHFFLFINYRNIPLIKELPKAPNEYKPQATPEEAWDFIIDDLIKAKDLLPDKNFWDAKNKGRVTKASAYALLGKSYLYRSGIEPKYGTSQTTYYNEAAAAFAEIINGNCGNYRLVDDYSWNFDVAHENNDESIFEVQFVGVLNTGFNPGFVDSGLFNDVRCKMCIMNRSRNSNSSAQVMHNWLYDKFVASKTVTGETDPRMFGSFVFNDNVSEIIRPKGMKVTFLEGKDWEAEMGSKEGTFGEQYELAMGYKMCSRKWLDWTLPPTDDAGGHFFNGRAQGVNWRMIRYSDVLLMYAEAVVMGGKATANITPLEAINKVRDRVGVPHVTEANMRTIEDERILELTYEGFRFFDLLRWGKVVERFRELENTDPLFKRFSRAQYMGFKENKNEWVPLPIDEVEGNPYITKNNPGW” the “soluble on expression in E. coli” value was “not soluble”. With “MGSDKIHHHHHHAQKKDFSYKFYGQIRTDLYYNSRANEETVDGLFYMYPKDEVFDSNGRDLNATANGSFYTLYTRLGLDVKGPKLGRAMTSAKVEADFRGSGTSYSTIRLRHAYLNLDWGRSALLLGQTWHPLFGDVSPQILNLSVGAPFQPFSRAPQIRYRYTHKGFQLTGAAIWQSQYLSQGIVGKSQTYIKNSCVPEFYLGLDYKANGWIAGAGIELLSLKPRTESKVEDQVYKVNERITTLSYEGHVKYSNKDWFVGAKTVLGSNLTQTSMLGGFGIKSIDNRTGEQKYTPIRVSSSWLNVVYGQKWKPGIFLGYVKNMGTSDALASNQVYGTGTNVDQVVTAGAELTYNVNHWKFGVEYTYTSAAYGSLYLKNGKIIDTHSVGNNRIVGVAMFMF” the “soluble on expression in E. coli” value was “not soluble”. In the case of “MNVRITKKMVRELLEVLDEIVEEIRQEEKEKYPYAEWERKREIVKERLRKLPKYVREAVSAIRIEKRVGRPKKVDLEKRVMLFLFARLINKSNRDVEELLELFEPLFGIRVSYKTIERLYSDEEVRMALHNLFILLLKDEGVSGEFSGDGTGYSLAITKHYRSNPKKKGKDFRYVFRIIDLETGMYVGFGYSAKSEKDAFEKAMKMLKSMGVKVNSISLDKYYSTRKTLRMFDAETSVYVIPKRNLSRIGFDWLRVIERIVEMPYRFLKRYFKRNLSEAGFSADKRRFGWLIRQRREDRREMALFAVGLWHNIFAVRVMR”, the “soluble on expression in E. coli” value is reported as “not soluble”.
